From patent US20060069055, “Delivery of polynucleotides” (published 2006)

B1: 153/154 PO/H11 (dsDNA)
DNA 1: AGTTGAGGACTTTCCAGGC
DNA 2: GCCTGGAAAGTCCTCAACT
modifications: strand 153 PO; strand 154 PS at the 11 most 3' linkages
B2: HIF decoy 863/864 (dsDNA)
DNA 1: AGCAGACGTGCAGGAT
DNA 2: ATCCTGCACGTCTGCT
B3: HIF decoy 865/866 (dsDNA)
DNA 1: AGCAGACGTGCAGGCA
DNA 2: TGCCTGCACGTCTGCT
B4: HIF decoy 873/874 (dsDNA)
DNA 1: TCCGTACGTGCTGCGT
DNA 2: ACGCAGCACGTACGGA
B5: 153/154 H5/PO (dsDNA)
DNA 1: AGTTGAGGACTTTCCAGGC
DNA 2: GCCTGGAAAGTCCTCAACT
modifications: PS at the 5 most 3' linkages of strand 153, strand 154 PO
B6: 153/154 PO (dsDNA)
DNA 1: AGTTGAGGACTTTCCAGGC
DNA 2: GCCTGGAAAGTCCTCAACT
B7: HIF decoy 819/820 double (dsDNA)
DNA 1: GAAATACGTGCGCTTTGTGTGTACGTGCAGGAA
DNA 2: TTCCTGCACGTACACACAAAGCGCACGTATTTC
B8: HIF decoy 843/844 (dsDNA)
DNA 1: GTGCATACGTGGGCTCCA
DNA 2: TGGAGCCCACGTATGCAC
B9: HIF decoy 821/822 (dsDNA)
DNA 1: CGCGAGCGTACGTGCCTCAGG
DNA 2: CCTGAGGCACGTACGCTCGCG
B10: HIF decoy 805/806 (dsDNA)
DNA 1: CCCCCTCGGACGTGACTCGGACCAC
DNA 2: GTGGTCCGAGTCACGTCCGAGGGGG
B11: HIF decoy 855/856 (dsDNA)
DNA 1: GTGTGTACGTGCAGGAAA
DNA 2: TTTCCTGCACGTACACAC
B12: HIF decoy 841/842 double (dsDNA)
DNA 1: AGCGGACGTGCAGAAGTTGCACGTCCTCT
DNA 2: AGAGGACGTGCAACTTCTGCACGTCCGCT
B13: HIF decoy 859/860 (dsDNA)
DNA 1: ACCGTACGTGCTGATC
DNA 2: GATCAGCACGTACGGT
B14: HIF decoy 851/852 (dsDNA)
DNA 1: CGGAGTACGTGACGGAGC
DNA 2: GCTCCGTCACGTACTCCG
B15: HIF decoy 849/850 (dsDNA)
DNA 1: GCCTACACGTGGGTTCCC
DNA 2: GGGAACCCACGTGTAGGC
B16: HIF decoy 879/880 (dsDNA)
DNA 1: GGCTGCTGCAGACGTGCAGGTC
DNA 2: GACCTGCACGTCTGCAGCAGCC
B17: HIF decoy 801/802 (dsDNA)
DNA 1: GCCCTACGTGCTGTCTCA
DNA 2: TGAGACAGCACGTAGGGC
B18: HIF decoy 891/892 (dsDNA)
DNA 1: GGCTGCTGCATACGTGCAGGTC
DNA 2: GACCTGCACGTATGCAGCAGCC
B19: HIF decoy 869/870 (dsDNA)
DNA 1: AGCAGACGTGCAGGGT
DNA 2: ACCCTGCACGTCTGCT
B20: HIF decoy 887/888 (dsDNA)
DNA 1: GGCTGCACCGTACGTGCTGATC
DNA 2: GATCAGCACGTACGGTGCAGCC
B21: HIF decoy 871/872 (dsDNA)
DNA 1: ACCGTACGTGCTGCCA
DNA 2: TGGCAGCACGTACGGT
B22: HIF decoy 853/854 (dsDNA)
DNA 1: TTGCTTACGTGCGCCCGG
DNA 2: CCGGGCGCACGTAAGCAA
B23: HIF decoy 845/846 (dsDNA)
DNA 1: GAGCGTACGTGCCTCAGG
DNA 2: CCTGAGGCACGTACGCTC

What follows are binders tested against T1, NF-kB p50/p50 homodimer (Homo sapiens, UniProt P19838 P19838:1-433) (assay: EMSA). Settings: protein: extract; tags: nuclear extract of LPS-stimulated THP-1 cells; chain copies: 2 (stated).
T1 sequence (P19838 1-433, one chain of several): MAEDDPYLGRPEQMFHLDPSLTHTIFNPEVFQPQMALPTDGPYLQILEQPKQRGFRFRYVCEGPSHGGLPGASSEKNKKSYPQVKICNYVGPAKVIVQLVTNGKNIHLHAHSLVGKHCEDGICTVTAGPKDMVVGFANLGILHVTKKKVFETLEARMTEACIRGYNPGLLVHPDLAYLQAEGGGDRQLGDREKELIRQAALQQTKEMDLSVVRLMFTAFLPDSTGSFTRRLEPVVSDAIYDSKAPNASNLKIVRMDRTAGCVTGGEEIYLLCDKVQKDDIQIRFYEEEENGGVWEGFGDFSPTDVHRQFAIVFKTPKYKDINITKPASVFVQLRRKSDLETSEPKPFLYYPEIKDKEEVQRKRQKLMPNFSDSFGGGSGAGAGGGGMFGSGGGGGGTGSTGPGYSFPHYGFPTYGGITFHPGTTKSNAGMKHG
Source text: (§1) The EMSA assay was employed to characterize oligonucleotide decoys for the NF-κB transcription factor. […] Using the above modified oligonucleotides to compete for binding for the above-mentioned NF-κB family members, it was possible to compare the binding affinity of these oligonucleotides against the high affinity radiolabeled probe and each other. This assay has also enabled the design of a decoy which selectively binds particular members of the NF-κB family. By using increasing concentrations of various oligonucleotides, it was observed that, by deleting or changing targeted residues in the binding site, it was possible to specifically decrease the binding of the decoy molecule to p50/p50 homodimers, while retaining the affinity for p65/p50 and cRel/p50 heterodimers.
(§2) The NF-κB gel shift assays (EMSA) were performed as follows. A double-stranded oligonucleotide containing a consensus NF-κB binding site (5′ […].GGC 3′) (SEQ ID NO: 26) was end-labeled with γ³²P-ATP using T4 Polynucleotide Kinase (Promega). […] The dried gels were imaged and quantitated using a Typhoon 8600 Phosphorlmager (Amersham) and ImageQuant software. […]
For B1, the IC50 was 40 fold molar excess.

Each binder was assayed against T2, HIF-1 complex (HIF-1alpha containing) (UniProt Q16665;P27540 Q16665:1-826,P27540:2-789) (assay: competition; TransAM; higher ratio = poorer competition; scramble 2.19). Settings: protein: extract; tags: nuclear extract, TransAM HIF-1 kit Active Motif 47096.
T2 sequence (Q16665 whole entry, chain 1 of 2): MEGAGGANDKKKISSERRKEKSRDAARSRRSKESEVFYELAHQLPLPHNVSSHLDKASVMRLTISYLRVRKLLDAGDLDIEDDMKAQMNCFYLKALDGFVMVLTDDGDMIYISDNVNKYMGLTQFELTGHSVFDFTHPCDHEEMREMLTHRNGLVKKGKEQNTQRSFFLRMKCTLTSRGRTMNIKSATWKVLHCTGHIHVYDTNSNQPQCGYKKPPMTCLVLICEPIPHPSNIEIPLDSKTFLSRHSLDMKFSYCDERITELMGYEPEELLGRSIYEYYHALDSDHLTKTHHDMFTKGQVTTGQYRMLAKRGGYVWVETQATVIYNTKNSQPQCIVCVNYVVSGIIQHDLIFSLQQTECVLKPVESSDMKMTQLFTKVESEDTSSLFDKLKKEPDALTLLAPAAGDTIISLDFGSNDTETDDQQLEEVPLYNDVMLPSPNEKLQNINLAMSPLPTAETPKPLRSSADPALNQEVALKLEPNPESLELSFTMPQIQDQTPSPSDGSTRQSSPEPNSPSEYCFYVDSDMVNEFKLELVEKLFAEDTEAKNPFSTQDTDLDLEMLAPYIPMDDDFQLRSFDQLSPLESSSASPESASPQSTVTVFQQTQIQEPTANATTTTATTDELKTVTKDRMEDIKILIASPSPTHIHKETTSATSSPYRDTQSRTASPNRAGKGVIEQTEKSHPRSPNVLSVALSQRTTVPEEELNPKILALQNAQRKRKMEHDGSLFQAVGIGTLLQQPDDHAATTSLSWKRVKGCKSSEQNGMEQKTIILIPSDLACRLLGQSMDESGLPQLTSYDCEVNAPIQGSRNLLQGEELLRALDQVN
T2 sequence (P27540 2-789, chain 2 of 2): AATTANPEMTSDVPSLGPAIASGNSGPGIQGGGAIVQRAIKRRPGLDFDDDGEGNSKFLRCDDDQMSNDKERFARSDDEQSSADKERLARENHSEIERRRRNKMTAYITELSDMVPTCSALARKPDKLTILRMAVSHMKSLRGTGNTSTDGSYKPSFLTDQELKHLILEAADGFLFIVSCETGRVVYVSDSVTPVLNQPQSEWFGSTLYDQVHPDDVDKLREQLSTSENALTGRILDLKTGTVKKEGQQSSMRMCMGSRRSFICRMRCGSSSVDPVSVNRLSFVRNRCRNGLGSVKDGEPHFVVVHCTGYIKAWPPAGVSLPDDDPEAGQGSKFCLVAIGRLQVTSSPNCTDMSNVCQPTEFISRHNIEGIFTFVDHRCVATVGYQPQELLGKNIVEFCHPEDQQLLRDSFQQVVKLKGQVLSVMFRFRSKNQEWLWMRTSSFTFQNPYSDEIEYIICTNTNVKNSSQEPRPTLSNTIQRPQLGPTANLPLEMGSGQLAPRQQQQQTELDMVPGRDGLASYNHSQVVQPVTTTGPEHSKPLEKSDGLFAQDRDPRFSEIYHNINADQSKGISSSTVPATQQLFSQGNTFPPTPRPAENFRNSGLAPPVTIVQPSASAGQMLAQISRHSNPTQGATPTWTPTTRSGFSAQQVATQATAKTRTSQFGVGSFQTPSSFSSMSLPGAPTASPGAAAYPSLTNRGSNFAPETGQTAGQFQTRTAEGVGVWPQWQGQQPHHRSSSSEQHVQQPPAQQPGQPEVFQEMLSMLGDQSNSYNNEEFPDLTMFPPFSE
Experimental: (§3) To assess the relative affinities of oligonucleotides for a HIF-1α containing complex, the HIF-1 TransAM assay (Active Motif, Catalog # 47096) was utilized. The assay was performed according to manufacturer's instructions. Briefly, a double-stranded oligonucletide containing the hypoxia response element (HRE) was immobilized on a 96-well plate. A nuclear extract containing HIF-1 alpha complexes was incubated and allowed to bind to the immobilized oligonucleotide. The unbound material was washed away and the bound HIF-1α detected using an antibody that specificially recognizes HIF-1α. The anti-HIF-1α antibody was detected by a secondary antibody labeled with horseradish peroxidase (HRP), and the amount of HRP in each well was measured using a colorimetric substrate reaction and read using a microplate spectrophotometer.
(§4) The ability of candidate decoy molecules to compete for binding of HIF-1α to the HRE element immobilized on the plate were measured and compared to reveal relative binding affinities. Candidate decoys were added in increasing molar ratios (relative to the amount of oligo immobilized on the plate) to compete for binding to the HIF-1α containing complexes. […] A well containing a competing decoy able to bind HIF-1α with high affinity would give a lower absorbance reading as compared to a decoy with low affinity for HIF-1α. All potential decoys were then compared and ranked in order to assess their relative binding affinities.
(§5) The screen was conducted using different decoy concentrations. For each UV absorbance reading, normalization was done by calculating the ratio of absorbance readings of sample vs. wild type control. The bigger ratio represents less competition of binding with HIF-1α when compared with wild-type control. The smaller (smaller than 1.0 or close to 1.0) ratios represent better binding or better competition.
B2 was tested, and the binding signal was 2.02 ratio to wild-type control.
For B3, the binding signal was 2.01 ratio to wild-type control.
For B4, the binding signal was 2.04 ratio to wild-type control.

The binders below were run against T1, NF-kB p50/p50 homodimer (assay: EMSA; competition against labelled probe 113/114). Settings: protein: extract; tags: nuclear extract of LPS-stimulated THP-1 cells; chain copies: 2 (stated).
Source text: as §1, §2
Binder B5 has an IC50 of 83 fold molar excess.
With B6 the IC50 was 92 fold molar excess.

The binders below were run against T2, HIF-1 complex (HIF-1alpha containing) (assay: competition; smaller is better competition; TransAM plate assay). Settings: protein: extract; tags: nuclear extract, TransAM HIF-1 kit Active Motif 47096.
Experimental: as §3
The ability of candidate decoy molecules to compete for binding of HIF-1α to the HRE element immobilized on the plate were measured and compared to reveal relative binding affinities. […] A well containing a competing decoy able to bind HIF-1α with high affinity would give a lower absorbance reading as compared to a decoy with low affinity for HIF-1α. […]
The screen was conducted using different decoy concentrations. For each UV absorbance reading, normalization was done by calculating the ratio of absorbance readings of sample vs. wild type control. […]
With B7 the binding signal was 0.88 ratio to wild-type control absorbance.

These binders were tested against T2, HIF-1 complex (HIF-1alpha containing) (assay: competition). Settings: protein: extract; tags: nuclear extract, TransAM HIF-1 kit Active Motif 47096.
Experimental: as §3, §4, §5
For B8, the binding signal was 1.81 ratio to wild-type control absorbance.
B9 was tested, and the binding signal was 1.26 ratio to wild-type control absorbance.
B10 was tested, and the binding signal was 1.09 ratio to wild-type control absorbance.
In the case of B11, the binding signal is reported as 1.21 ratio to wild-type control absorbance.
B12 was tested, and the binding signal was 0.95 ratio to wild-type control absorbance.
For B13, the binding signal was 1.85 ratio to wild-type control absorbance.
With B14 the binding signal was 1.08 ratio to wild-type control absorbance.
In the case of B15, the binding signal is reported as 1.96 ratio to wild-type control absorbance.
In the case of B16, the binding signal is reported as 1.98 ratio to wild-type control absorbance.
With B17 the binding signal was 1.83 ratio to wild-type control absorbance.
With B18 the binding signal was 1.6 ratio to wild-type control absorbance.
B19 was tested, and the binding signal was 1.93 ratio to wild-type control absorbance.
With B20 the binding signal was 1.94 ratio to wild-type control absorbance.
With B21 the binding signal was 1.87 ratio to wild-type control absorbance.
In the case of B22, the binding signal is reported as 1.62 ratio to wild-type control absorbance.
B23 was tested, and the binding signal was 1.57 ratio to wild-type control absorbance.
